The source of these data is the Immune Epitope Database (IEDB).

Holding throughout (experiment): IEDB peptide-MHC binding, purified MHC/competitive/radioactivity; ≥ and ≤ were set here for values at or beyond the usual limits of such assays
Common to all, as to conditions: source organism: Bordetella pertussis

Test [1] concerns the target HLA-B*53:01.
Test [2] has as its target HLA-B*57:01.
For test [3], the target named is HLA-B*35:01.
Test [4] deals with HLA-A*02:01.
The target in test [5] is HLA-B*44:03.

pIC50: −log10 of the molar value.

In the case of CPSSLGNGV, the negative-log IC50 (pIC50) in test [1] is 4.58.
Consider DAGHEHDTW, for which, in test [2], the negative logarithm of the IC50 (pIC50) is 4.48.
With EATEGDATL, the results for the negative-log IC50 (pIC50) in test [3] and in test [1] were 4.16 and 4.34, respectively.
GVGLASTLW: the pIC50 in test [1] was 4.90; in test [2] it was 4.73.
Take KAGKLSATG: the pIC50 in test [2] was 4.34.
The same measure, in the same setting: the figure for KSYTLRYLA is 6.58.
Turning to LLHHILPIL, the negative logarithm of the IC50 (pIC50) in test [4] is 5.83.
LSSPSAITV: in test [2], the negative-log IC50 (pIC50) is at most 4.15.
LTWLAILAV: the negative logarithm of the IC50 (pIC50) in test [4] was 5.39.
QADRDFVWY: the negative-log IC50 (pIC50) is 4.42 in test [5] and 4.57 in test [1].
For the sequence RAGLSPATW, the negative-log IC50 (pIC50) in test [1] was 4.57.
In the case of RGFAQRQQL, the negative logarithm of the IC50 (pIC50) in test [2] is 4.27.
Take SVAPNALAW: the values for the pIC50 in test [3] and in test [1] were 4.25 and 6.01, respectively.
On to TSPYDGKYW, for which, in test [2], the negative-log IC50 (pIC50) was at most 4.15.
Regarding YFEPGPTTD, the pIC50 in test [1] is 4.16.
Turning to YTLRYLASY, the pIC50 is 5.45 in test [3] and 9.12 in test [2].
